Experimental data published in patent US20240124586A1 (WUXI BIOLOGICS IRELAND, published 2024).

Legend:
[1] = biological target: T1, human CD3 on CD3+ Jurkat cells (human, UniProt P07766 23-207; P09693 23-182; P04234 22-171); assay: flow cytometry on Jurkat cells
T1 construct: whole, on cells; also called CD3 positive Jurkat cells

[2] = biological target: T2, cynomolgus CD19 on CHO-K1 cells (WBP701.CHO-K1.cpro1.FL.C9) (cynomolgus monkey, UniProt A0A2K5W8L9 20-557); assay: flow cytometry on cynomolgus CD19 CHO-K1 cells
T2 construct: whole, on cells; also called cynomolgus-CD19 expressing cell; WBP701.CHOK1.cPro1.C9
T2 sequence: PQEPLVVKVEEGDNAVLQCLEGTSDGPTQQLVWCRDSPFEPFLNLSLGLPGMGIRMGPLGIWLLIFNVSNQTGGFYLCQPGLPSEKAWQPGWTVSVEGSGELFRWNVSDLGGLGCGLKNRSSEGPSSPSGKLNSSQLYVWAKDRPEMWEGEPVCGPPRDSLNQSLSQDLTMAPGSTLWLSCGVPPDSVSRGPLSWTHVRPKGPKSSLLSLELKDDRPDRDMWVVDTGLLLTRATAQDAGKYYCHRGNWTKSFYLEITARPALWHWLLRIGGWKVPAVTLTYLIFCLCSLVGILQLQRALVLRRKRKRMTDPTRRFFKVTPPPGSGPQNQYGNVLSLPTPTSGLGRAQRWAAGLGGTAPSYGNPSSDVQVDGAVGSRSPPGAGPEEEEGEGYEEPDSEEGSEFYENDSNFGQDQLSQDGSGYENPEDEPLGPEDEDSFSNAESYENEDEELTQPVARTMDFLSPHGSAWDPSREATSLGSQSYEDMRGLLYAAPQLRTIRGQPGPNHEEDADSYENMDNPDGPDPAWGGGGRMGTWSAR
Description: Binding of the CD3×CD19 bispecific antibody to Cynomolgus CD19 target protein expressed on CHOK1 cells was determined by flow cytometry analysis. In brief, cynomolgus CD19 over-expressed stable cell line (WBP701.CHOK1.cPro1.C9, WuXi Biologics) were harvested with trypsin and diluted to 1×10⁶ cells/ml in 1% BSA/1×PBS. […] Antibodies serially diluted in 1% BSA/1×PBS were added at 100 ul/well to the pelleted cells and incubated at 4° C. for 1 hour. […] Cells were washed two times with 180 ul/well of 1% BSA/1×PBS by centrifugation at 1500 rpm for 5 minutes at 4° C. […] Cells were then washed two times as described above. After the final wash, cells were resuspended in 80 ul 1% BSA/1×PBS and fluorescence values were measured with a FACS Canto II cytometer (BD Biosciences). The amount of cell surface bound anti-CD19&CD3 bispecific antibody was assessed by measuring the mean fluorescence (MFI). The FACS raw data were analyzed by FlowJo software, wells containing no antibody or secondary antibody only were used to establish background fluorescence. Binding EC50 values were obtained by the four-parameter non-linear regression analysis using GraphPad Prism 5 software.

FcγRI = biological target: T3, FcγRI (UniProt P12314 16-288, limits assumed); assay: SPR (Biacore), receptor captured on anti-his chip, 1:1 model
T3 construct: His-tagged by the capture method
Description: (§1) Antibody binding affinity to FcγRs was detected using Biacore T200 (or Biacore 8K). Each receptor was captured on an anti-his antibody immobilized CM5 sensor chip (GE). Antibodies at different concentrations were injected over the sensor chip at a flow rate of 30 uL/min for an association phase of 60 s, followed by 60 s dissociation. The chip was then regenerated by 10 mM glycine (pH 1.5) after each binding cycle.
(§2) The sensorgrams of blank surface and buffer channel were subtracted from the test sensorgrams. The experimental data was fitted by 1:1 model using Langmiur analysis (for FcγRI) or steady state model (for other receptors). A molecular weight of 150 KDa was used to calculate the molar concentration of antibodies.

FcγRIIa (H167) = biological target: T4, FcγRIIa (H167) (UniProt P12318 36-218, limits assumed); assay: SPR (Biacore), receptor captured on anti-his chip, steady state model
T4 sequence (looked up): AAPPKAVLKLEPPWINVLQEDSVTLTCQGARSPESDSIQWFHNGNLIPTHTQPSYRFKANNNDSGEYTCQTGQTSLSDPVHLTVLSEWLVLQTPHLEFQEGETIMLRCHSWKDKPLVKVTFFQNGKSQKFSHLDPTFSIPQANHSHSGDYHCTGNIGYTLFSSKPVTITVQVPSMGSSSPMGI
Description: as §1, §2

FcγRIIa (R167) = biological target: T5, FcγRIIa (R167) (UniProt P12318 36-218, limits assumed); assay: as above
T5 sequence (looked up): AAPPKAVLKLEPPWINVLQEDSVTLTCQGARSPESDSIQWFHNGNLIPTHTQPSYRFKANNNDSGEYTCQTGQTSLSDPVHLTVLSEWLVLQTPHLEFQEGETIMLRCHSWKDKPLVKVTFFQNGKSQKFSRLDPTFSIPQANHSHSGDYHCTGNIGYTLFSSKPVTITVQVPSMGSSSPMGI
Description: as §1, §2

FcγRIIb = biological target: T6, FcγRIIb (UniProt P31994 46-217, limits assumed); assay: as above
T6 sequence (looked up): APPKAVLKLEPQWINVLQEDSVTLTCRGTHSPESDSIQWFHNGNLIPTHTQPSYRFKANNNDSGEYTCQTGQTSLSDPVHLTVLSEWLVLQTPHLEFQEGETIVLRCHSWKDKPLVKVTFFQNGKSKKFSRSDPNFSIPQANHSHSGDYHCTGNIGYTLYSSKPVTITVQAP
Description: as §1, §2

FcγRIIIa (F176) = FcγRIIIa (F176) (UniProt P08637 17-208); assay: as above
Description: as §1, §2

[3] = biological target: T7, human PD-1 ECD mouse Fc fusion (W305-hPro1.ECD.mFc) (human, UniProt Q15116 25-170); assay: dual binding ELISA, PD-1 ECD.mFc coated, detection with biotinylated CTLA-4 ECD.hFc; first antibody named, first value; PD-1 coated, biotinylated CTLA-4 detection
T7 construct: extracellular domain; In-house protein; also called hPD-1-ECD; human PD-1 coated on the plate
Description: In order to test whether the bispecific antibodies could bind to both hPD-1 and hCTLA-4, an ELISA assay was developed as below. A 96-well ELISA plate (Nunc MaxiSorp, ThermoFisher) was coated overnight at 4° C. with 0.5 μg/ml antigen-1 (hPD-1-ECD, W305-hPro1.ECD.mFc) in carbonate-bicarbonate buffer. After a 1 hour blocking step with 2% (w/v) bovine serum albumin (Pierce) dissolved in PBS, serial dilutions of the different PD-1×CTLA-4 bispecific antibodies in PBS containing 2% BSA PBS were incubated on the plates for 1 hour at room temperature. Following the incubation, plates were washed three times with 300 μL per well of PBS containing 0.5% (v/v) Tween 20. […] After washing the plates three times, Streptavidin-HRP (Lifetechnologies, #SNN1004) (1:20000 diluted) was added and incubated on the plates for 1 hour at room temperature. After washing six times with […] per well of PBS containing 0.5% (v/v) Tween 20, 100 μL tetramethylbenzidine (TMB) substrate was added for the detection per well. The reaction was stopped after approximately 5 minutes through the addition of […] per well of 2 M HCl. The absorbance of the wells was measured at 450 nm with a multiwall plate reader (SpectraMax® M5e).

[4] = biological target: T8, human CTLA-4 on engineered 293F cells (W316-293F.hPro1.FL) (human, UniProt P16410 36-223); assay: FACS binding to human CTLA-4 engineered cells
T8 construct: whole, on cells; also called human CTLA-4 engineered cells; CTLA-4+ cells
Description: 3.16-fold titrated Abs with 1% BSA DPBS from 200 nM to 0.002 nM were added to the cells. Plates were incubated at 4° C. for 1 hour. After wash, […] 1:150 diluted PE-labeled goat anti-human antibody (Jackson 109-115-098) was added to each well and the plates were incubated at 4° C. for 1 hour. The binding of the antibodies onto the cells was tested by flow cytometry and the mean fluorescence intensity (MFI) was analyzed by FlowJo.

T7 sequence (Q15116 25-170): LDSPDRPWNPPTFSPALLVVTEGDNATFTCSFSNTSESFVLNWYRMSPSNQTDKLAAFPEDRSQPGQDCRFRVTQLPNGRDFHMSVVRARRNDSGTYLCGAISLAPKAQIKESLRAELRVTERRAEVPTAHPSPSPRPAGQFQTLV
T8 sequence (P16410 36-223, change not shown): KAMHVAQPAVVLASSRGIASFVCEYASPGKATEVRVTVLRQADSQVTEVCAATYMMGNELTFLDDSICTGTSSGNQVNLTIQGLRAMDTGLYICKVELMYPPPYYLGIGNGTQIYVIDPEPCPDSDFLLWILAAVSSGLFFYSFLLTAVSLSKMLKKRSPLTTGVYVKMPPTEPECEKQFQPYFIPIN
T1 sequence (P07766 23-207, chain 1 of 3): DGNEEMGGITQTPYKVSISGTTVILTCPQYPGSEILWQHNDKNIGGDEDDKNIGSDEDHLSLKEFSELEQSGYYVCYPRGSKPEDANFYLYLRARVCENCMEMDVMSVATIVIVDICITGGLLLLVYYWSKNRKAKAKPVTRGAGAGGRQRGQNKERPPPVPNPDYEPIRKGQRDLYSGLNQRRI
T1 sequence (P09693 23-182, chain 2 of 3): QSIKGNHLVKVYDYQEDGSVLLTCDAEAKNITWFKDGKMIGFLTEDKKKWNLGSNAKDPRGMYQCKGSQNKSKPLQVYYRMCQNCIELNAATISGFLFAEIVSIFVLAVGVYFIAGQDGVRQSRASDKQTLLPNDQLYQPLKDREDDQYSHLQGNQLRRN
T1 sequence (P04234 22-171, chain 3 of 3): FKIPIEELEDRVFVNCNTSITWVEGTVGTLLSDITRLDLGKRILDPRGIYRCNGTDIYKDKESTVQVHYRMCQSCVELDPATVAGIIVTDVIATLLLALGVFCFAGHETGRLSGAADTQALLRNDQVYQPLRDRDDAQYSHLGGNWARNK
FcγRIIIa (F176), sequence (P08637 17-208 limits assumed): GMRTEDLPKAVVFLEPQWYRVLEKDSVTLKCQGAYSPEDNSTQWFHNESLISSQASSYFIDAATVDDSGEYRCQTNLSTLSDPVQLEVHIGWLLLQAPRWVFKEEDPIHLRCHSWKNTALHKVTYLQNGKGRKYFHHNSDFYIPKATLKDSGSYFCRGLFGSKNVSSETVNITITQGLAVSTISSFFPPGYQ
T3 sequence (P12314 16-288 limits assumed): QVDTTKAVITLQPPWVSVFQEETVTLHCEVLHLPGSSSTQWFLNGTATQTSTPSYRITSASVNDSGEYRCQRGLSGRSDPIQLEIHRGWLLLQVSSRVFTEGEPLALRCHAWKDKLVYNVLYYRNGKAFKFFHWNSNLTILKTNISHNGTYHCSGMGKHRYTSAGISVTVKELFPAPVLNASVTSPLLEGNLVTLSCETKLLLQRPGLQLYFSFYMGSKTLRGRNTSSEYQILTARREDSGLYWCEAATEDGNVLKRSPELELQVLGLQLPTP

B1: W3438-T3U4.E17-1.uIgG4.SP, bispecific anti-CD3 x CD19 (bispecific antibody)
heavy 1: QVQLVQSGAEVKKPGSSVKVSCKASGFAFTDYYIHWVRQAPGQGLEWMGWISPGNVNTKYNENFKGRVTITADKSTSTAYMELSSLRSEDTAVYYCARDGYSLYYFDYWGQGTLVTVLEDLKNVFPPEVAVFEPSEAEISHTQKATLVCLATGFYPDHVELSWWVNGKEVHSGVCTDPQPLKEQPALQDSRYALSSRLRVSATFWQNPRNHFRCQVQFYGLSENDEWTQDRAKPVTQIVSAEAWGRYGPPCPPCPAPEFLGGPSVFLFPPKPKDTLMISRTPEVTCVVVDVSQEDPEVQFNWYVDGVEVHNAKTKPREEQFNSTYRVVSVLTVLHQDWLNGKEYKCKVSNKGLPSSIEKTISKAKGQPREPQVYTLPPCQEEMTKNQVSLWCLVKGFYPSDIAVEWESNGQPENNYKTTPPVLDSDGSFFLYSRLTVDKSRWQEGNVFSCSVMHEALHNHYTQKSLSLSLGK
light 1: DIVMTQSPDSLAVSLGERATINCKSSQSLLNSRTRKNYLAWYQQKPGQPPKLLIYWASTRQSGVPDRFSGSGSGTDFTLTISSLQAEDVAVYYCTQSHTLRTFGGGTKVEIKPDIQNPDPAVYQLRDSKSSDKSVCLFTDFDSQTQVSQSKDSDVYITDKCVLDMRSMDFKSNSAVAWSQKSDFACANAFQNSIIPEDTFFPSPESS
heavy 2: QMQLVQSGPEVKKPGTSVKVSCKASGYAFTSYNMYWVRQARGQRLEWIGYIDPYNGDTTYNQKFKGRVTITRDMSTSTAYMELSSLRSEDTAVYYCLTTAYAMDYWGQGTLVTVSSASTKGPSVFPLAPCSRSTSESTAALGCLVKDYFPEPVTVSWNSGALTSGVHTFPAVLQSSGLYSLSSVVTVPSSSLGTKTYTCNVDHKPSNTKVDKRVESKYGPPCPPCPAPEFLGGPSVFLFPPKPKDTLMISRTPEVTCVVVDVSQEDPEVQFNWYVDGVEVHNAKTKPREEQFNSTYRVVSVLTVLHQDWLNGKEYKCKVSNKGLPSSIEKTISKAKGQPREPQVCTLPPSQEEMTKNQVSLSCAVKGFYPSDIAVEWESNGQPENNYKTTPPVLDSDGSFFLVSRLTVDKSRWQEGNVFSCSVMHEALHNHYTQKSLSLSLGK
light 2: DIQLTQSPSFLSASVGDRVTITCSASSTVNYMHWYQQKPGKAPKLLIYSTSNLASGVPSRFSGSGSGTEFTLTISSLQPEDFATYYCHQWSSYPYTFGQGTKLEIKRTVAAPSVFIFPPSDEQLKSGTASVVCLLNNFYPREAKVQWKVDNALQSGNSQESVTEQDSKDSTYSLSSTLTLSKADYEKHKVYACEVTHQGLSSPVTKSFNRGEC
notes: also called E17-Design_2-QQQQ (IgG4); E17-IgG4; copies: 1 + 1 + 1 + 1
How did the EC50 [1] turn out when B1 was run?
The EC50 was 47 nM.

What about the EC50 [2] of the same binder?
Its EC50 is 26 nM.

What about the Kd (FcγRI) of the same binder?
Its Kd is 9.79 nM.

And the Kd (FcγRIIa (H167))?
Its Kd is 20500 nM.

And the Kd (FcγRIIa (R167))?
Its Kd is 15800 nM.

And the Kd (FcγRIIb)?
The Kd was 24100 nM.

And the Kd (FcγRIIIa (F176))?
Its Kd is 29300 nM.

B2: W3248-U6T1.G25R-1.uIgG4.SP, bispecific anti-PD-1 x CTLA-4 (bispecific antibody)
heavy: EVQLLESGGGLVQPGGSLRLSCAASGFTFSSHAMSWVRQAPGKGLEWVSTITGGGGSIYYADSVKGRFTISRDNSKNTLYLQMNSLRAEDTAVYYCAKNRAGEGYFDYWGQGTLVTVSSASTKGPSVFPLAPCSRSTSESTAALGCLVKDYFPEPVTVSWNSGALTSGVHTFPAVLQSSGLYSLSSVVTVPSSSLGTKTYTCNVDHKPSNTKVDKRVGGGGSGGGGSQVQLVESGGGVVQPGRSLRLSCAASGFTFSSYTMHWVRQAPGKGLEWVTFISYDGNNKYYADSVKGRFTISRDNSKNTLYLQMNSLRAEDTAIYYCARTGWLGPFDYWGQGTLVTVLEDLKNVFPPEVAVFEPSEAEISHTQKATLVCLATGFYPDHVELSWWVNGKEVHSGVCTDPQPLKEQPALQDSRYALSSRLRVSATFWQNPRNHFRCQVQFYGLSENDEWTQDRAKPVTQIVSAEAWGRYGPPCPPCPAPEFLGGPSVFLFPPKPKDTLMISRTPEVTCVVVDVSQEDPEVQFNWYVDGVEVHNAKTKPREEQFNSTYRVVSVLTVLHQDWLNGKEYKCKVSNKGLPSSIEKTISKAKGQPREPQVYTLPPSQEEMTKNQVSLTCLVKGFYPSDIAVEWESNGQPENNYKTTPPVLDSDGSFFLYSRLTVDKSRWQEGNVFSCSVMHEALHNHYTQKSLSLSLG
light 1: SYELTQPLSVSVALGQTARITCGGDNIGNKDVHWYQQKPGQAPVLVIYRDSNRPSGIPEGFSGSNSGNTATLTISRAQAGDEADYYCQVWDSIWVFGGGTKLTVLGQPKAAPSVTLFPPSSEELQANKATLVCLISDFYPGAVTVAWKADSSPVKAGVETTTPSKQSNNKYAASSYLSLTPEQWKSHKSYSCQVTHEGSTVEKTVAPTECS
light 2: not shown
notes: IgG4 (S228P); also called U6T1.G25R.IgG4
How did the EC50 [3] turn out when B2 was run?
The EC50 was 0.107 nM.

B3: W3248-U6T5.G25-1.uIgG4.SP, bispecific anti-PD-1 x CTLA-4 (bispecific antibody)
heavy: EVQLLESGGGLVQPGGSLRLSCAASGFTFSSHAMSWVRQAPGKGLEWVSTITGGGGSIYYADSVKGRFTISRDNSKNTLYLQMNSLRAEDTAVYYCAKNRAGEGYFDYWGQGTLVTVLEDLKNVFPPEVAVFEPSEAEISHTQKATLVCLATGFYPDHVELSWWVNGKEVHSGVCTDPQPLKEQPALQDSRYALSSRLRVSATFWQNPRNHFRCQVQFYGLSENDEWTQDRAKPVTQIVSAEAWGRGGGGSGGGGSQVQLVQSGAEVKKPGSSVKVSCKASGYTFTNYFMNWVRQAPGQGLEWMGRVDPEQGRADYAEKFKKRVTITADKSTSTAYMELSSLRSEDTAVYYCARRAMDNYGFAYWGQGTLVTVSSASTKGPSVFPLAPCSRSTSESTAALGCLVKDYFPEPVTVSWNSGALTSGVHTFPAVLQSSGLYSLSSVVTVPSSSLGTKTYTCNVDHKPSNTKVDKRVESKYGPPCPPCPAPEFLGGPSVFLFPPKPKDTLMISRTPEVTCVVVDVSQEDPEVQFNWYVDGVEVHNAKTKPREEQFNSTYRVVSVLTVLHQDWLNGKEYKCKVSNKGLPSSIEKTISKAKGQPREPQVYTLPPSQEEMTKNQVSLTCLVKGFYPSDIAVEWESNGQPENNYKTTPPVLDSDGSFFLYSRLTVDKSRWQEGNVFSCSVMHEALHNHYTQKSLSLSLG
light 1: SYELTQPLSVSVALGQTARITCGGDNIGNKDVHWYQQKPGQAPVLVIYRDSNRPSGIPEGFSGSNSGNTATLTISRAQAGDEADYYCQVWDSIWVFGGGTKLTVLPDIQNPDPAVYQLRDSKSSDKSVCLFTDFDSQTQVSQSKDSDVYITDKCVLDMRSMDFKSNSAVAWSQKSDFACANAFQNSIIPEDTFFPSPESS
light 2: EIVLTQSPDFQSVTPKEKVTITCSANSALSYMYWYQQKPDQSPKLWVHGTSNLASGVPSRFSGSGSGTDFTLTINSLEAEDAATYYCHHWSNTQWTFGGGTKVEIKRTVAAPSVFIFPPSDEQLKSGTASVVCLLNNFYPREAKVQWKVDNALQSGNSQESVTEQDSKDSTYSLSSTLTLSKADYEKHKVYACEVTHQGLSSPVTKSFNRGEC
notes: IgG4 (S228P); also called WBP3248-U6T5.G25-1-uIgG4.SP; U6T5.G25.IgG4
For B3, which EC50 [4] is on record?
The EC50 was 3.17 nM.
